# Earlier results as cited in article PMC6526119.
# pKd: −log10 of the molar value.
# Molecular target: Hsp90 (Saccharomyces cerevisiae) (UniProt P02829)
substance,measurement,value
Hsp90 (from UniProt P02829),pKd,7.22
